Assay [1] deals with T1, Murine TNFR2 (mouse, UniProt P25119 23-474).
T1 construct: Expressed on transiently transfected HEK293 cells; also called mouse TNFR2; TNFR2(mu)
T1 sequence: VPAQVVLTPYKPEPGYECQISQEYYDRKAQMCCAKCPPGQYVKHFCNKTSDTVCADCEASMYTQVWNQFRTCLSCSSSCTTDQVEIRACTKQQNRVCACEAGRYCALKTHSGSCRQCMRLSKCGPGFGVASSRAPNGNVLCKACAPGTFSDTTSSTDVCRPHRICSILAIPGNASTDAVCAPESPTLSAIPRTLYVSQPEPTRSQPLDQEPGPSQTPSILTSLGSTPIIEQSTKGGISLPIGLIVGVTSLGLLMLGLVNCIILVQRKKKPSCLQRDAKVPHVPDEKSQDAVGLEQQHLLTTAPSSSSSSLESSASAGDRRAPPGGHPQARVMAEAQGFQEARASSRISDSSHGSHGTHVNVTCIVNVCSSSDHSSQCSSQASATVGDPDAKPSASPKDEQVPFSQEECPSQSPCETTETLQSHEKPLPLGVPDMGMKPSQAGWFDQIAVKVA
The experiment in a line: equilibrium binding of VHH-Fc-GpL to cells expressing mouse TNFR2, 37 C; column head Affinity (ng/ml). How it is done:
(§1) Specific binding (open circles) was obtained by subtraction of the non-specific binding values (Hek293 cells—crosses) from the binding values for transfectants expressing human TNFR2 (total binding—closed circles). Specific binding was analyzed with the “nonlinear regression to a one-site specific binding curve” function of the GraphPad Prism5 software.
(§2) The equivalent experiment was also performed using TNFR2 from different species, namely from Mus musculus (mouse), Macaca fascicularis (cynomolgus monkey), and Chlorocebus sabaeus (African green monkey) to study the ability of the VHH regions to bind to TNFR2 from different species. The ability to cross react to TNFR2 from different species can be helpful in allowing the antibodies to be studied in various models before assessment in human patients.

The target in assay [2] is T2, Human TNFR2 (human, UniProt P20333 23-461).
T2 construct: On cells: HeLa-TNFR2, HT1080-Bcl2-TNFR2, transiently transfected HEK293; endogenous on Kym-1 cells; also called huTNFR2; TNFRSF1B
T2 sequence: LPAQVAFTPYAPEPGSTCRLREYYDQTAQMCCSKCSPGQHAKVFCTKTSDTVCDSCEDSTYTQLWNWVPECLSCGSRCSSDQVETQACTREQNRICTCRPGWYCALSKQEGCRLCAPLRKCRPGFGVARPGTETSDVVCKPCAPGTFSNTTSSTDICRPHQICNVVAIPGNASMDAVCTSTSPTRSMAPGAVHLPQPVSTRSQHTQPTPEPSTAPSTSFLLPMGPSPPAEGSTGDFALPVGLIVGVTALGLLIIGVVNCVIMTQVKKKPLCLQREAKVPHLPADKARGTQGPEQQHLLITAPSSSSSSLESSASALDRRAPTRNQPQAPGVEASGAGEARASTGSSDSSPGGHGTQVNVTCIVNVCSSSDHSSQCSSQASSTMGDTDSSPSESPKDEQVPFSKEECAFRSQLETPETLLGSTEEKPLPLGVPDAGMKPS
The experiment in a line: equilibrium binding of VHH-Fc-GpL to cells expressing human TNFR2, 37 °C; HEK293 cells as unspecific binding; one-site fit of specific binding.

Assay [3] addresses T3, African green monkey TNFR2 (Chlorocebus sabaeus (African green …)).
T3 construct: whole, on cells
The experiment in a line: equilibrium binding of VHH-Fc-GpL to cells expressing African green monkey TNFR2, 37 C; column head Affinity (ng/ml). How it is done: as §1, §2

Assay [4] has as its target T4, Cynomolgus TNFR2 (Macaca fascicularis (cynomolgus monkey), UniProt P20333 26-461 (human entry)).
T4 construct: Expressed on transiently transfected HEK293 cells; also called TNFR2-cyno; monkey TNFR2
T4 chain: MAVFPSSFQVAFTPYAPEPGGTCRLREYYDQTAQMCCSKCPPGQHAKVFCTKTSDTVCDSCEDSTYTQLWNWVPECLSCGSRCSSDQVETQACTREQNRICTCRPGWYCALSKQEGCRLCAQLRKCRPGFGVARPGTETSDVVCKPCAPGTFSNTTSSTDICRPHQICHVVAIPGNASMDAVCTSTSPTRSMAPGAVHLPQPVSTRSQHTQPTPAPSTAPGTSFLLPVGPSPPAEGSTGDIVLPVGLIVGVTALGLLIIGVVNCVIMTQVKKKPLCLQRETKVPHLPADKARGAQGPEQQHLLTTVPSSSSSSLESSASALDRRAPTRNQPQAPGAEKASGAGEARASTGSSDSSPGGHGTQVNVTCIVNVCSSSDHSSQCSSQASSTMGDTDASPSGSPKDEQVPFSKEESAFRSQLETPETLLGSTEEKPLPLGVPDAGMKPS
The experiment in a line: equilibrium binding of VHH-Fc-GpL to cells expressing cynomolgus TNFR2, 37 C; column head Affinity (ng/ml). How it is done:
as §1, §2

Assay [5] concerns the target T1, Murine TNFR2. The experiment in a line: equilibrium binding of VHH-Fc-GpL to cells expressing mouse TNFR2, 37 C. The protocol: as §1, §2
The target of assay [6] is T4, Cynomolgus TNFR2. Briefly: equilibrium binding of VHH-Fc-GpL to cells expressing cynomolgus TNFR2, 37 C. The protocol: as §1, §2
Assay [7] has as its target T2, Human TNFR2. Briefly: specific binding of the GpL fusion protein to HeLa-TNFR2 cells after 8 h, HeLa values subtracted, luciferase activity normalised to GpL per binding site.
Method: HeLa-TNFR2 cells were pretreated with 3-10 μg/ml of the indicated anti-TNFR2 antibodies or remained untreated. […] Supernatants of HeLa-TNFR2 cells were then analyzed for TNFR2-induced IL8 production (B) and repeatedly washed cells (HeLa, and HeLa-TNFR2) were analyzed for cell-associated GpL activity. Specific binding to TNFR2, shown in (A) was calculated by subtraction of the unspecific binding values obtained from the HeLa cells from the total binding values derived of the HeLa-TNFR2 cells. […] The latter was transformed into “occupied receptors per cells” by help of the number of cells in the assay and the measured specific activity (RLU/molecule) of the GpL constructs.
Supernatants of HeLa-TNFR2 were then analyzed for TNFR2-induced IL8 production with the results shown in (B). Repeatedly washed cells (HeLa, and HeLa-TNFR2) were analyzed for cell-associated GpL activity. Specific binding to TNFR2, was calculated by subtraction of the unspecific binding values obtained from the HeLa cells from the total binding values derived of the HeLa-TNFR2 cells with the results obtained shown in (A).

B1: VHH:C238-Fc-GpL (Fc fusion)
VHH: QVQLVESGGGSVQPGGSLTLSCVDSGSAYLSYCMAWFRQAPGKEREGVAAIYYGGDSYYADSVKGRFTISQDHAKNTMYLQMNSLKPEDTAVYYCAADVGFICGYDSDNDPPNDWGQGTQVTVSS
notes: also called VHH-Fc-GpL format protein of C238; not shown: the listing has no entry for the VHH-Fc-GpL format
One may read the Kd as the free concentration of one partner at which half of the binding sites on the other are occupied at equilibrium, for simple one-to-one binding. As to B1, the Kd turned out to be 1.05 µg/mL with Murine TNFR2 [1], 0.67 µg/mL with Human TNFR2 [2], 0.17 µg/mL in assay [3] and 0.2 µg/mL with Cynomolgus TNFR2 [4].

B2: VHH:C188-Fc-GpL (Fc fusion, Gaussia princeps)
chain: DVQLVESGGGSVQTGGSLTLSCAISGSTSERYCLGWFRQAPGREREGVAATSLTGRGAQFYADSVKGRFTISLDDAKNTLYLQMDSLRPDDTAVYYCAEDVGFLCGYDSDNDPFYDWGQGTQVTVSS
notes: also called VHH-Fc-GpL format protein of C188; not shown: Fc domain; Gaussia princeps luciferase (GpL) reporter domain at the C-terminus of the Fc
For B2, the equilibrium dissociation constant (Kd) turned out to be 0.95 µg/mL with Murine TNFR2 [1], 0.57 µg/mL in the assay with Human TNFR2 [2], 0.15 µg/mL in assay [3] and 0.45 µg/mL with Cynomolgus TNFR2 [4].

B3: VHH:C178-Fc-GpL (Fc fusion)
VHH: DVQLVESGGGLVHPGGSLRLSCAASGFTFSADDATWARQPPGKGLEWISTLYFDTEEKTYADSVKGRFIISRDIAKNTVYLQMNNLKPEDTGMYVCTATWAGGSLLRPASFGVWGQGTQVTVSS
notes: also called VHH-Fc-GpL format protein of C178; not shown: The Fc domain, the C-terminal GpL reporter and the linkers or tags of the VHH-Fc-GpL construct; No entry gives the joined chain or says which Fc variant was used
Turning to B3, the binding result in the assay with Murine TNFR2 [5] and with Cynomolgus TNFR2 [6] was “no binding” in each case. For the same molecule, the Kd stood at 0.9 µg/mL in the assay with Human TNFR2 [2] and 0.06 µg/mL in assay [3].

B4: C4-IgG1(N297A)-LC:GpL-HC:scFvC4 (antibody)
light: EVKLVPRQLDIVMTQSHKFMSTSVGDRVSITCKASQDVDTAVAWYQQKPGQSPKLLIYWASTRHTGVPDRFTGSGSGTDYTLTISSVQAEDLARYYCQQYYSVPPTFGGGTKLGSEIKRTVAAPSVFIFPPSDEQLKSGTASVVCLLNNFYPREAKVQWKVDNALQSGNSQESVTEQDSKDSTYSLSSTLTLSKADYEKHKVYACEVTHQGLSSPVTKSFNRGECLEKPTENNEDFNIVAVASNFATTDLDADRGKLPGKKLPLEVLKEMEANARKAGCTRGCLICLSHIKCTPKMKKFIPGRCHTYEGDKESAQGGIGEAIVDIPEIPGFKDLEPMEQFIAQVDLCVDCTTGCLKGLANVQCSDLLKKWLPQRCATFASKIQGQVDKIKGAGGD
heavy: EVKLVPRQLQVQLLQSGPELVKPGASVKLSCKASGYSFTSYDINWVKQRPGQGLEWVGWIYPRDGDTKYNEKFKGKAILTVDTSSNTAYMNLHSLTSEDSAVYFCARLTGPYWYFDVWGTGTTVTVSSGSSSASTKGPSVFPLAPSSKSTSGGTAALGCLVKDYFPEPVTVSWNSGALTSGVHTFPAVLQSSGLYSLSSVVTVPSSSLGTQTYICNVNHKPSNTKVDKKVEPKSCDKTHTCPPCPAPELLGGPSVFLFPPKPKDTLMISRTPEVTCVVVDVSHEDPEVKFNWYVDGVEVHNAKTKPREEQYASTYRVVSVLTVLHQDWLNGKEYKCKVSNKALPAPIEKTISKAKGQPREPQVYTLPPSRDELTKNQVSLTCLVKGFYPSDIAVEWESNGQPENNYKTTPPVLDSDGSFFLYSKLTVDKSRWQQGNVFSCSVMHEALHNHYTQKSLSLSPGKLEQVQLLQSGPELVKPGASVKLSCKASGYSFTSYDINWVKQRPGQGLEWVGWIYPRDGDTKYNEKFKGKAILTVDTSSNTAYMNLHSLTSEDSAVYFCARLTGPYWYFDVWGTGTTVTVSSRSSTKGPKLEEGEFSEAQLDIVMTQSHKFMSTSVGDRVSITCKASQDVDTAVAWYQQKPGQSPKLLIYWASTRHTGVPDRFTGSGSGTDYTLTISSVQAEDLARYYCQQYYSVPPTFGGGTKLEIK
notes: copies: 2 + 2
On to B4, for which the binding result with Human TNFR2 [7] is on record as “binds”.

B5: VHH:C12-Fc-GpL (Fc fusion)
VHH: DVQLVESGGGLVQPGGSLRLSCGGSGFTFSSYGMSWVRQAPGKGLEWVSGIYDDGSVTDYADSVKGRFTISRDDAKNTVYLQMNSLKSEDTALYYCATGEDGELNYWGQGTQVTVSS
notes: also called VHH-Fc-GpL format protein of C12; not shown: The Fc domain, the C-terminal GpL reporter and the linkers or tags of the VHH-Fc-GpL construct; No entry gives the joined chain or says which Fc variant was used
Consider B5, for which the binding result with Murine TNFR2 [5] and with Cynomolgus TNFR2 [6] was “no binding” throughout. For the same molecule, the values for the Kd (with Human TNFR2 [2]; in assay [3]) were 0.8 µg/mL and 0.08 µg/mL, respectively.

B6: VHH:C74-Fc-GpL (Fc fusion)
VHH: DVQLVESGGGLVQSGGSLRLSCAASGFPFSSSDMTWVRQTSGSVFEWVSDINPDGQNTRYADSVKGRFIISRDNAKSTLYLQMDSLKTDDTAVYYCAADPGSSGGSLSYWGKGTLVTVSS
notes: also called VHH-Fc-GpL variant of C74; not shown: The Fc domain, the C-terminal GpL reporter and the linkers or tags of the VHH-Fc-GpL construct; No entry gives the joined chain or says which Fc variant was used
As to B6, the binding result with Murine TNFR2 [5] and in the assay with Cynomolgus TNFR2 [6] was “no binding” throughout. Also, the dissociation constant Kd with Human TNFR2 [2] was found to be 0.08 µg/mL; in assay [3] it was 0.06 µg/mL.
